Measurements published in US20200262867A1 (WNTRX PHARMACEUTICALS, published 2020).
Bridges are numbered along the chain shown (N, C = ends). Primed or numbered codes have the meaning given here. Where no end group is shown, it is not given here. Side-chain parts run from the residue outwards. [ ]: non-standard residue; d: D form. The star is where a group is joined. S5′ = (S)-2-(4'-pentenyl)alanine, olefinic stapling residue closed by ring-closing metathesis; NMeQ′ = N-methylglutamine (N-alpha-methyl, stereo named both D and L in the filing); PEG4″ = PEG4 (tetraethylene glycol) spacer; 2Nal = N[C@@H](Cc1ccc2ccccc2c1)C(=O)O; d2Nal = N[C@H](Cc1ccc2ccccc2c1)C(=O)O; NMeH = CN[C@@H](Cc1c[nH]cn1)C(=O)O; NMeR = CN[C@@H](CCCNC(=N)N)C(=O)O; Palmitoyl = CCCCCCCCCCCCCCCC(=O)*; hArg = N=C(N)NCCCC[C@H](N)C(=O)O; tBuAla = CC(C)(C)C[C@H](N)C(=O)O; NMeQ = CN[C@@H](CCC(N)=O)C(=O)O; Cha = N[C@@H](CC1CCCCC1)C(=O)O; Cit = NC(=O)NCCC[C@H](N)C(=O)O; Cba = N[C@@H](CC1CCC1)C(=O)O; S5 = C=CCCC[C@](C)(N)C(=O)O; Nle = CCCC[C@H](N)C(=O)O; βAla = NCCC(=O)O

T1: β-catenin (UniProt P35222 1-781, limits assumed)
T1 construct: also called beta-catenin
T1 sequence (looked up): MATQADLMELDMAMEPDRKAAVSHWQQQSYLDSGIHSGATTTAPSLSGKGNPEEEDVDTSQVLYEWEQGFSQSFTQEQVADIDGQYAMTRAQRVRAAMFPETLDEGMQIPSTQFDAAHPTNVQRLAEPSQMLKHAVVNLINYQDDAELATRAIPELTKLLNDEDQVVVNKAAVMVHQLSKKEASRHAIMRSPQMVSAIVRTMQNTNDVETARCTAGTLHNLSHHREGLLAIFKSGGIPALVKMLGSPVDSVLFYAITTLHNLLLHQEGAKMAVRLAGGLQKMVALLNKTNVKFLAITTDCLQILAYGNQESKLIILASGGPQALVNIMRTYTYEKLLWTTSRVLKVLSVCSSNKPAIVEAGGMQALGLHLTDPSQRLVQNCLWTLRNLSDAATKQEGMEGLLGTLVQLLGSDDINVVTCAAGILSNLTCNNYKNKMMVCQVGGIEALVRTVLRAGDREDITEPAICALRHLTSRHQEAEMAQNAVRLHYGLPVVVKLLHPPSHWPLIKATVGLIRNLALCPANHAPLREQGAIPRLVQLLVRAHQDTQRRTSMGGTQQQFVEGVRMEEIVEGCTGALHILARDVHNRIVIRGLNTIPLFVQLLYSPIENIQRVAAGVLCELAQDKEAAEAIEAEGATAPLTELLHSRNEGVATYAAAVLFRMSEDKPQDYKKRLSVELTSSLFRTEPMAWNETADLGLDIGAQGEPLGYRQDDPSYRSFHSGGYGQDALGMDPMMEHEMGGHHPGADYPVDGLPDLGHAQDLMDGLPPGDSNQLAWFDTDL

B1: SEQ ID NO: 58 (peptide)
peptide: RSLQTLR[Nle]IQR[Nle]L[2Nal]
B2: SEQ ID NO: 161 (peptide)
peptide: Ac-HRQRSLQTLR[S5]IQR[S5][Cba][2Nal]K([PEG4″-Palmitoyl])-NH2
modifications: staple 11-15
B3: SEQ ID NO: 215 (peptide)
peptide: Ac-[NMeH]RQRSLQTLR[S5]IQR[S5][Cha][2Nal]-NH2
modifications: staple 11-15
SMILES: CC[C@H](C)[C@@H]1NC(=O)[C@@](C)(NC(=O)[C@H](CCCNC(=N)N)NC(=O)[C@H](CC(C)C)NC(=O)[C@@H](NC(=O)[C@H](CCC(N)=O)NC(=O)[C@H](CC(C)C)NC(=O)[C@H](CO)NC(=O)[C@H](CCCNC(=N)N)NC(=O)[C@H](CCC(N)=O)NC(=O)[C@H](CCCNC(=N)N)NC(=O)[C@H](Cc2c[nH]cn2)N(C)C(C)=O)[C@@H](C)O)CCCC=CCCC[C@@](C)(C(=O)N[C@@H](CC2CCCCC2)C(=O)N[C@@H](Cc2ccc3ccccc3c2)C(N)=O)NC(=O)[C@H](CCCNC(=N)N)NC(=O)[C@H](CCC(N)=O)NC1=O
B4: SEQ ID NO: 8 (peptide)
peptide: Ac-QLEHRERSLQTLR[S5]IQR[S5]L[2Nal]-NH2
modifications: staple 14-18; not fully specified; printed as QLEHRERSLQTLRXIQRXL(2-Nal)
B5: SEQ ID NO: 190 (peptide)
peptide: Ac-HRQRSLQTLR[S5]IQ[NMeR][S5][Cha][2Nal]-NH2
modifications: staple 11-15
SMILES: CC[C@H](C)[C@@H]1NC(=O)[C@@](C)(NC(=O)[C@H](CCCNC(=N)N)NC(=O)[C@H](CC(C)C)NC(=O)[C@@H](NC(=O)[C@H](CCC(N)=O)NC(=O)[C@H](CC(C)C)NC(=O)[C@H](CO)NC(=O)[C@H](CCCNC(=N)N)NC(=O)[C@H](CCC(N)=O)NC(=O)[C@H](CCCNC(=N)N)NC(=O)[C@H](Cc2c[nH]cn2)NC(C)=O)[C@@H](C)O)CCCC=CCCC[C@@](C)(C(=O)N[C@@H](CC2CCCCC2)C(=O)N[C@@H](Cc2ccc3ccccc3c2)C(N)=O)NC(=O)[C@H](CCCNC(=N)N)N(C)C(=O)[C@H](CCC(N)=O)NC1=O
B6: SEQ ID NO: 160 (peptide)
peptide: {Palmitoyl-PEG4″}-HRQRSLQTLR[S5]IQR[S5][Cba][2Nal]-NH2
modifications: staple 11-15
B7: SEQ ID NO: 207 (peptide)
peptide: {Palmitoyl-PEG4″}-HR[NMeQ′]RSL[NMeQ′]TLR[S5]IQR[S5][Cha][2Nal]-NH2
modifications: staple 11-15; not fully specified
B8: SEQ ID NO: 55 (peptide)
peptide: LQTLRDIQRML[2Nal]P
B9: SEQ ID NO: 7 (peptide)
peptide: Ac-EHRERSLQTLR[S5]IQR[S5]L[2Nal]-NH2
modifications: staple 12-16; not fully specified; printed as EHRERSLQTLRXIQRXL(2-Nal)
B10: SEQ ID NO: 12 (peptide)
peptide: Ac-EHQERSLQTLR[S5]IQR[S5]L[2Nal]-NH2
modifications: staple 12-16; not fully specified; printed as EHQERSLQTLRXIQRXL(2-Nal)
B11: SEQ ID NO: 9 (peptide)
peptide: Ac-EHRERSLQTLR[S5′]IQR[S5′][Cba][2Nal]-NH2
modifications: staple 12-16; not fully specified; printed as EHRERSLQTLRXIQRX(CBA)(2-Nal)
B12: SEQ ID NO: 191 (peptide)
peptide: Ac-HRQRSLQTLR[S5]IQR[S5][tBuAla][2Nal]-NH2
modifications: staple 11-15
SMILES: CC[C@H](C)[C@@H]1NC(=O)[C@@](C)(NC(=O)[C@H](CCCNC(=N)N)NC(=O)[C@H](CC(C)C)NC(=O)[C@@H](NC(=O)[C@H](CCC(N)=O)NC(=O)[C@H](CC(C)C)NC(=O)[C@H](CO)NC(=O)[C@H](CCCNC(=N)N)NC(=O)[C@H](CCC(N)=O)NC(=O)[C@H](CCCNC(=N)N)NC(=O)[C@H](Cc2c[nH]cn2)NC(C)=O)[C@@H](C)O)CCCC=CCCC[C@@](C)(C(=O)N[C@@H](CC(C)(C)C)C(=O)N[C@@H](Cc2ccc3ccccc3c2)C(N)=O)NC(=O)[C@H](CCCNC(=N)N)NC(=O)[C@H](CCC(N)=O)NC1=O
B13: SEQ ID NO: 189 (peptide)
peptide: Ac-HRQRSLQTL[NMeR][S5]IQR[S5][Cha][2Nal]-NH2
modifications: staple 11-15
SMILES: CC[C@H](C)[C@@H]1NC(=O)[C@@](C)(NC(=O)[C@H](CCCNC(=N)N)N(C)C(=O)[C@H](CC(C)C)NC(=O)[C@@H](NC(=O)[C@H](CCC(N)=O)NC(=O)[C@H](CC(C)C)NC(=O)[C@H](CO)NC(=O)[C@H](CCCNC(=N)N)NC(=O)[C@H](CCC(N)=O)NC(=O)[C@H](CCCNC(=N)N)NC(=O)[C@H](Cc2c[nH]cn2)NC(C)=O)[C@@H](C)O)CCCC=CCCC[C@@](C)(C(=O)N[C@@H](CC2CCCCC2)C(=O)N[C@@H](Cc2ccc3ccccc3c2)C(N)=O)NC(=O)[C@H](CCCNC(=N)N)NC(=O)[C@H](CCC(N)=O)NC1=O
B14: SEQ ID NO: 223 (peptide)
peptide: HRQRSLQTLXXIQRXAA
modifications: H(homoArg)QRSLQTL(Cit)XIQRX(Cha)(2-Nal); X/X stapled, (S) α-methyl; N-terminal Ac; C-terminal NH2
B15: SEQ ID NO: 213 (peptide)
peptide: {Palmitoyl-PEG4″}-L[NMeQ′]TLR[S5]IQR[S5][Cba][2Nal]-NH2
modifications: staple 6-10; also: Q2 N-methyl: stated both D and L
B16: SEQ ID NO: 49 (peptide)
peptide: LR[Nle]IQR[Nle]L[2Nal][βAla][βAla]
B17: SEQ ID NO: 57 (peptide)
peptide: RSLQTLRDIQRML[2Nal]
B18: SEQ ID NO: 222 (peptide)
peptide: Ac-H[hArg]QRSLQTLR[S5]IQ[Cit][S5][Cha][2Nal]-NH2
modifications: staple 11-15
SMILES: CC[C@H](C)[C@@H]1NC(=O)[C@@](C)(NC(=O)[C@H](CCCNC(=N)N)NC(=O)[C@H](CC(C)C)NC(=O)[C@@H](NC(=O)[C@H](CCC(N)=O)NC(=O)[C@H](CC(C)C)NC(=O)[C@H](CO)NC(=O)[C@H](CCCNC(=N)N)NC(=O)[C@H](CCC(N)=O)NC(=O)[C@H](CCCCNC(=N)N)NC(=O)[C@H](Cc2c[nH]cn2)NC(C)=O)[C@@H](C)O)CCCC=CCCC[C@@](C)(C(=O)N[C@@H](CC2CCCCC2)C(=O)N[C@@H](Cc2ccc3ccccc3c2)C(N)=O)NC(=O)[C@H](CCCNC(N)=O)NC(=O)[C@H](CCC(N)=O)NC1=O
B19: SEQ ID NO: 188 (peptide)
peptide: Ac-HRQRSLQTLR[S5]IQR[S5][Cha][d2Nal]-NH2
modifications: staple 11-15
SMILES: CC[C@H](C)[C@@H]1NC(=O)[C@@](C)(NC(=O)[C@H](CCCNC(=N)N)NC(=O)[C@H](CC(C)C)NC(=O)[C@@H](NC(=O)[C@H](CCC(N)=O)NC(=O)[C@H](CC(C)C)NC(=O)[C@H](CO)NC(=O)[C@H](CCCNC(=N)N)NC(=O)[C@H](CCC(N)=O)NC(=O)[C@H](CCCNC(=N)N)NC(=O)[C@H](Cc2c[nH]cn2)NC(C)=O)[C@@H](C)O)CCCC=CCCC[C@@](C)(C(=O)N[C@@H](CC2CCCCC2)C(=O)N[C@H](Cc2ccc3ccccc3c2)C(N)=O)NC(=O)[C@H](CCCNC(=N)N)NC(=O)[C@H](CCC(N)=O)NC1=O
B20: SEQ ID NO: 36 (peptide)
peptide: Ac-QLEHRERSL[S5]TLR[S5]IQRML[2Nal]-NH2
modifications: staple 10-14; not fully specified; printed as QLEHRERSLXTLRXIQRML(2-Nal)
B21: SEQ ID NO: 164 (peptide)
peptide: HRQRSLQTLR[S5]IQ[NMeR][S5][Cba][2Nal]
modifications: staple 11-15; not fully specified (residues 3, 7, N-terminus, C-terminus); printed as HR(N-methylQ)RSL(N-methylQ)TLRXIQ(N-methylR)X(CBA)(2-Nal), X/X stapled, (S) α-methyl, N-terminal Ac, C-terminal NH2
B22: SEQ ID NO: 59 (peptide)
peptide: RERSLQTLRDIQRML[2Nal]
B23: SEQ ID NO: 193 (peptide)
peptide: Ac-HR[NMeQ]RSLQTLR[S5]IQR[S5][tBuAla][2Nal]-NH2
modifications: staple 11-15; also: N-methylglutamine 3: D or L (filing names both)
B24: SEQ ID NO: 56 (peptide)
peptide: LQTLR[Nle]IQR[Nle]L[2Nal]P
B25: SEQ ID NO: 209 (peptide)
peptide: {Palmitoyl-PEG4″}-H[hArg]QRSLQTLR[S5]IQR[S5][Cha][2Nal]-NH2
modifications: staple 11-15

What follows are binders tested against T1, β-catenin (assay: ALPHA Screen (BCL9/β-catenin);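 note: bead proximity readout with the polypeptide linked to donor beads and β-catenin fixed on acceptor beads, their binding bringing the beads close enough to emit signal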).
From the text: In this assay, a polypeptide is conjugated to a donor bead and its target protein (i.e., β-catenin) is attached to an acceptor bead. When the two beads are in proximity due to the binding of the polypeptide to the target protein, a signal is generated and the binding affinity of the polypeptide can be quantitatively calculated. The assay may be conducted in the presence or absence of an unconjugated control polypeptide.
In the case of B1, the IC50 is reported as 2840 nM. B2 gave an IC50 of 791 nM. B3 showed an IC50 of 9520 nM. B4 was tested, and the IC50 was 770 nM. B5 was tested, and the IC50 was 271 nM. Work on B6 yielded an IC50 of 361 nM. B7 was tested, and the IC50 was 354 nM. B8 gave an IC50 of 30300 nM. In the case of B9, the IC50 is reported as 810 nM. For B10, the IC50 was 4160 nM. B11 gave an IC50 of 1500 nM. For B12, the IC50 was 322 nM. In the case of B13, the IC50 is reported as 247 nM. In the case of B14, the IC50 is reported as 573 nM. B15 gave an IC50 of 466 nM. With B16 the IC50 was 6710 nM. Binder B17 has an IC50 of 13600 nM. B18 gave an IC50 of 742 nM. B19 gave an IC50 of 387 nM. Binder B20 has an IC50 of 940 nM. B21 showed an IC50 of 1480 nM. B22 was tested, and the IC50 was 5950 nM. B23 showed an IC50 of 323 nM. In the case of B24, the IC50 is reported as 10100 nM. B25 was tested, and the IC50 was 253 nM.
